Columns and labels:
Assay in all cases: FACS
RaTG13 RBD = biological target: RaTG13 RBD
GD-Pangolin RBD = biological target: GD-Pangolin RBD
A021 RBD = biological target: A021 RBD
Frankfurt 1 RBD = biological target: Frankfurt 1 RBD
SHC014 RBD = biological target: SHC014 RBD
WIV1 RBD = biological target: WIV1 RBD
CS24 RBD = biological target: CS24 RBD
Civet 007-2004 RBD = biological target: Civet 007-2004 RBD
Rs4231 RBD = biological target: Rs4231 RBD
LYRa11 RBD = biological target: LYRa11 RBD

For CB6/LY-CoV16, the Kd (RaTG13 RBD) was 3.6 nM and the Kd (GD-Pangolin RBD) was 2.15 nM.

For LY-CoV555, the Kd (GD-Pangolin RBD) was 1.3 nM.

REGN10933 gave a Kd (GD-Pangolin RBD) of 0.64 nM.

With REGN10987 the Kd (GD-Pangolin RBD) was 1.44 nM.

S309 showed a Kd (A021 RBD) of 4.14 nM, a Kd (Frankfurt 1 RBD) of 3.5 nM and a Kd (SHC014 RBD) of 3.78 nM. It also gave a Kd (WIV1 RBD) of 3.89 nM, a Kd (CS24 RBD) of 2.52 nM and a Kd (RaTG13 RBD) of 2.88 nM. It also gave a Kd (Civet 007-2004 RBD) of 3.75 nM, a Kd (Rs4231 RBD) of 3.77 nM and a Kd (GD-Pangolin RBD) of 4.53 nM. It also gave a Kd (LYRa11 RBD) of 4.53 nM.
